Measurements: paper PMC9018708

Key:
[1] = molecular target: Heparin Binding EGF Like Growth Factor, endogenous on ARN8 cells (human (endogenous in ARN8)) (UniProt Q99075)
[2] = molecular target: human Heparin Binding EGF Like Growth Factor, overexpressed on ARN8 HBEGFKO cells (human) (UniProt Q99075)
[3] = molecular target: Heparin Binding EGF Like Growth Factor (DT receptor) on Vero cells (African green monkey (endogenous in Vero))
[4] = molecular target: Heparin Binding EGF Like Growth Factor (DT receptor) on Vero cells (African green monkey (endogenous in Vero)); remark: listed apart in the source

Substance | sensitivity (EC50), dose titration on WT ARN8 cells (HBEGFKO cells: 245 nM) [1] | sensitivity (EC50), dose titration on +HBEGF ARN8 cells [2] | EC50 of toxicity toward Vero cells (dose titration) [3] | sensitivity (EC50), dose titration on WT ARN8 cells (HBEGFKO cells: 55 nM) [1] | DT sensitivity (EC50), dose titration on WT ARN8 cells (HBEGFKO cells: N/A) [1] | DT sensitivity (EC50), dose titration on +HBEGF ARN8 cells [2] | EC50 of inhibition of protein synthesis (nLucP assay) in Vero cells, overnight (18 h) incubation [4]
DT(ATR), DT chimera with the R domain of Albireti Toxin | 169 nM | 608 nM | 12 nM |  |  |  | 
DT(PTR), DT chimera with the R domain of Peptono Toxin |  | 50 nM | 7 nM | 25 nM |  |  | 
Diphtheria toxin (from UniProt P00588 33-567) (natural protein) |  |  |  |  | 0.026 nM | 0.00043 nM | 0.00015 nM
